Reference: US7977317B2, “Compositions and methods for modulating blood-brain barrier transport” (Raptor Pharmaceutical Inc., priority 2001, dated 2011)

Legend:
Megalin = Megalin (Homo sapiens, UniProt P98164); conditions: Tables 1-3; cited from earlier work
LDL-R = LDL-R (Homo sapiens, UniProt P01130); conditions: Tables 1-3; cited from earlier work
BBCEC monolayers = assay: Transcytosis across BBCEC monolayers (in vitro BBB model); format: cell-based, bovine
Text: FIG. 10 assesses the ability of several agents to interfere with p97 transyctosis. FIG. 10a, transcytosis of I125-P97 was compared in the presence of cold p97 (5 micromolar), Lf (5 micromolar), and Tf (5 micromolar). […] FIG. 10c, RAP, a known poly-peptide inhibitor of the LDL-Receptor family was applied to the cells (25 micrograms/ml).
FIG. 11 examines the accumulation and transcytosis of p97. FIG. 11a, of [^125I]-p97, [^125I]-BSA and [^125I]-holo-transferrin one hour after i.v. injection. The radioactivity in brain was compared between the three compounds. (n=3); FIG. 11b, Accumulation of p97 and transferrin into the mouse brain parenchyma. In situ brain perfusion was performed with human [^125I]-p97 or [^125I]-holo-transferrin at a final concentration of 10 nM via a catheter inserted in the right common carotid artery. The volume of distribution (VD) of [^125I]-proteins were obtained in the whole brain homogenate (white bars), in brain capillaries (solid bars) and in brain parenchyma (hatched bars) after isolation of the right hemisphere and capillary depletion. Results were obtained for p97 (n=10) and for holo-transferrin (n=6); FIG. 11c, Transcytosis of p97 across BBCEC monolayers. Transcytosis experiments were performed 37° C. (open circles) and 4° C. (closed circles) with BBCEC monolayers. [^125I]-p97 (1 mg/ml) was added to the upper side of the cell-covered filter. One representative experiment is shown (n=4); FIG. 11d, Preferential transport of p97 across the BBCEC monolayers. Apical-to-basal and basal-to-apical transport of [^125I]-p97 (25 nM) was measured for 2 hrs at 37° C. At the end of the experiment, [^125I]-p97 was assessed in the lower or upper chambers of each well by TCA precipitation (n=4).
FIG. 13 illustrates the transcytosis and accumulation of p97 and transferrin in BBCEC monolayers. FIG. 13a, Transcytosis experiments were performed at 37° C. (solid bars) or 4° C. (white bars). [^125I]-p97 or bovine [^125I]-holo-transferrin (1 mg/ml) was added to the upper side of the cell-covered filter. At the end of the experiment, radiolabelled proteins were measured in the lower chamber of each well by TCA precipitation (n=4). Controls were also performed at 37° C. with denatured [^125I]-p97 or bovine [^125I]-holo-transferrin boiled for 30 min (grey bars) (n=2); FIG. 13b, Biospecific interaction analysis was performed with native or boiled p97 for the indicated times. MAb L235 (5 μg) was immobilized on a sensor chip (SM5) using standard procedures incorporating NHS, EDC and ethanolamine. Native and boiled p97 (5 to 30 min) diluted at 1 mg/ml in Ringer/Hepes was cooled and injected into the BIAcore. The surface plasmon resonance response obtained for native p97 and boiled p97 was plotted (in relative units (RU)) as a function of time; FIG. 13c, The accumulation of both proteins into BBEC cells were also measured. Briefly, after incubation at 37° C. (solid bars) or 4° C. (white bars) with either [^125I]-protein, cells were washed four times with cold PBS. Accumulation of both denatured proteins (grey bars) was also measured at 37° C. Filters were then removed, and the radioactivity associated with the cells was quantified (n=3).
FIG. 14 illustrates the stability of p97 and integrity of the BBCEC monolayers following p97 transcytosis. FIG. 14a, Transcytosis experiments were performed at 37° C. and 4° C. by adding p97 (1 mg/ml) to the upper compartment. At the end of the experiment, 50 μl from each lower chamber was used for SDS-polyacrylamide gel electrophoresis. After electrophoresis, the gels were stained with Coomassie Blue. A standard curve was also made with known amounts of recombinant p97 (0-2 μg); FIG. 14b. The gels were dried and scanned to quantify the amount of intact p97 that crossed the BBCEC monolayers at 37° C. and 4° C. (n=3); FIG. 14c, Effect of p97 on sucrose permeability of BBCE cell monolayers co-cultured with astrocytes. […]

human brain capillaries = assay: Accumulation/uptake of [125I]-p97 in isolated human brain capillaries; format: binding
Protocol: FIG. 5. Accumulation of p97 in human brain capillaries. Accumulation of [^125I]-p97 was measured at 37° C. for 1 h in isolated human brain capillaries (100 μg/assay). The incubation medium contained [^125I]-p97 and a final concentration of 100 nM p97 in Ringer/Hepes solution. The accumulation of [^125I]-p97 was performed in the presence or absence of 5 μm cold-p97, holo-transferrin or lactoferrin. […] The suspension was filtered under vacuum through a […] pore size Millipore filter. The filter was rinsed with 8 ml of stop solution, and the radioactivity was counted. Nonspecific binding of the radioactivity to the capillaries was determined by the addition of the ice-cold stop solution to the capillaries before adding the incubation medium. This value was subtracted from accumulation values obtained following an 1 h incubation. The results were expressed as ng of [^125I]-p97 accumulated per μg of brain capillaries.
FIG. 16 illustrates the identification of a p97 receptor according to ligand specificity. FIG. 16a, Uptake of [^125I]-p97 into human brain capillaries. The uptake of [^125I]-p97 at 100 nM (control) into isolated human brain capillaries was measured for 1 h at 37° C. in the presence of a 50-fold molar excess of unlabelled p97, human holo-transferrin or human lactoferrin. (*[…] Student's t-test (n=5); FIG. 16b, Effect of RAP on [^125I]-p97 transcytosis across BBCEC monolayers. Apical-to-basal transport of [^125I]-p97 was measured in the presence (closed circles) or absence (open circles) of RAP (25 μg/ml) (n=5); FIG. 16c, Inhibition of bovine [^125I]-lactoferrin transport by p97. Transcytosis of bovine [^125I]-lactoferrin (50 nM) was measured in the presence (closed circles) or absence (open circles) of unlabelled p97 (5 μM) at 37° C. (n=3).
A. Isolation of human brain capillaries. Capillaries of the blood-brain barrier were isolated from human brain cortex by a procedure previously described by Dallaire, et al., J. Biol. Chem., 267:22323-22327 (1992) with slight modifications. Human brains were obtained post-mortem. The brain was cleared of meninges, superficial large blood vessels and choroid plexus. All the following procedures were performed at 4° C. The cerebral cortex was homogenized in 5 volumes of Ringer/Hepes solution with a Polytron (Brinkman Instruments, Rexdale, Ontario, Canada). The homogenate was mixed with an equal volume of Dextran T-70 (27 g in 100 ml of Ringer/Hepes). The suspension was centrifuged at 25,000 g for 10 min. The pellet was resuspended in 30 ml of Ringer/Hepes and passed through a 250 μm nylon mesh screen. […]
B. p97 accumulation in human brain capillaries. […] Accumulation of [^125I]-p97 was measured at 37° C. for 1 h in isolated human brain capillaries (100 μg/assay). […]

LRP = LRP (Homo sapiens, UniProt Q07954); conditions: Tables 1-3; cited from earlier work
VLDL-R = VLDL-R (Homo sapiens, UniProt P98155); conditions: Tables 1-3; cited from earlier work
LR11 = LR11 (Homo sapiens, UniProt Q92673); conditions: Tables 1-3; cited from earlier work
ER-2 = molecular target: T1, ER-2 (Homo sapiens, UniProt Q14114); conditions: Tables 1-3; cited from earlier work
T1 sequence (Q14114 33-963): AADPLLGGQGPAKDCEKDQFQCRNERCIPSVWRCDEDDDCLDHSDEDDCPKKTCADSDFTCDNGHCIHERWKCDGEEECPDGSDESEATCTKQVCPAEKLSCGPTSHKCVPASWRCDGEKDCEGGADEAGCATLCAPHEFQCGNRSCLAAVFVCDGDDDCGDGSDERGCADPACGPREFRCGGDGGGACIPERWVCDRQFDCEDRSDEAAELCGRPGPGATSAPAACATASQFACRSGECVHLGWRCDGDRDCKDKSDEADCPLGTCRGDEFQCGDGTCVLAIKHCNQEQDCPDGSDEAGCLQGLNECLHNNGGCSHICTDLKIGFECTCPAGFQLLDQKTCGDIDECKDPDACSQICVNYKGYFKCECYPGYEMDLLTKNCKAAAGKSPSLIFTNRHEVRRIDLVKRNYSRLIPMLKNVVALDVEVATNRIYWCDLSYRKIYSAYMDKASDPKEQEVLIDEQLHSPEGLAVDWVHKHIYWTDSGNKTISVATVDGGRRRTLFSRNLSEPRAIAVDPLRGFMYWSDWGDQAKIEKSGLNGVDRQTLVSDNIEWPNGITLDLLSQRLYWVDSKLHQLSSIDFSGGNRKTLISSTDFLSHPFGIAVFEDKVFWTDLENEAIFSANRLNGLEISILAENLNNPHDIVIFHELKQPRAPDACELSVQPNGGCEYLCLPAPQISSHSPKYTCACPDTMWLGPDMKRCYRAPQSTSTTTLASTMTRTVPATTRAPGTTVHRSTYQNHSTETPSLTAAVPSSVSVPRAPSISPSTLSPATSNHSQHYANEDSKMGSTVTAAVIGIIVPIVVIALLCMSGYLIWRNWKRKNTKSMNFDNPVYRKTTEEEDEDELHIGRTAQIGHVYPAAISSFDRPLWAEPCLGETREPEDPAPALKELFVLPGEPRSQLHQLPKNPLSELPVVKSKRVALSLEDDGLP

Chain of Megalin (P98164 26-4655, species assumed): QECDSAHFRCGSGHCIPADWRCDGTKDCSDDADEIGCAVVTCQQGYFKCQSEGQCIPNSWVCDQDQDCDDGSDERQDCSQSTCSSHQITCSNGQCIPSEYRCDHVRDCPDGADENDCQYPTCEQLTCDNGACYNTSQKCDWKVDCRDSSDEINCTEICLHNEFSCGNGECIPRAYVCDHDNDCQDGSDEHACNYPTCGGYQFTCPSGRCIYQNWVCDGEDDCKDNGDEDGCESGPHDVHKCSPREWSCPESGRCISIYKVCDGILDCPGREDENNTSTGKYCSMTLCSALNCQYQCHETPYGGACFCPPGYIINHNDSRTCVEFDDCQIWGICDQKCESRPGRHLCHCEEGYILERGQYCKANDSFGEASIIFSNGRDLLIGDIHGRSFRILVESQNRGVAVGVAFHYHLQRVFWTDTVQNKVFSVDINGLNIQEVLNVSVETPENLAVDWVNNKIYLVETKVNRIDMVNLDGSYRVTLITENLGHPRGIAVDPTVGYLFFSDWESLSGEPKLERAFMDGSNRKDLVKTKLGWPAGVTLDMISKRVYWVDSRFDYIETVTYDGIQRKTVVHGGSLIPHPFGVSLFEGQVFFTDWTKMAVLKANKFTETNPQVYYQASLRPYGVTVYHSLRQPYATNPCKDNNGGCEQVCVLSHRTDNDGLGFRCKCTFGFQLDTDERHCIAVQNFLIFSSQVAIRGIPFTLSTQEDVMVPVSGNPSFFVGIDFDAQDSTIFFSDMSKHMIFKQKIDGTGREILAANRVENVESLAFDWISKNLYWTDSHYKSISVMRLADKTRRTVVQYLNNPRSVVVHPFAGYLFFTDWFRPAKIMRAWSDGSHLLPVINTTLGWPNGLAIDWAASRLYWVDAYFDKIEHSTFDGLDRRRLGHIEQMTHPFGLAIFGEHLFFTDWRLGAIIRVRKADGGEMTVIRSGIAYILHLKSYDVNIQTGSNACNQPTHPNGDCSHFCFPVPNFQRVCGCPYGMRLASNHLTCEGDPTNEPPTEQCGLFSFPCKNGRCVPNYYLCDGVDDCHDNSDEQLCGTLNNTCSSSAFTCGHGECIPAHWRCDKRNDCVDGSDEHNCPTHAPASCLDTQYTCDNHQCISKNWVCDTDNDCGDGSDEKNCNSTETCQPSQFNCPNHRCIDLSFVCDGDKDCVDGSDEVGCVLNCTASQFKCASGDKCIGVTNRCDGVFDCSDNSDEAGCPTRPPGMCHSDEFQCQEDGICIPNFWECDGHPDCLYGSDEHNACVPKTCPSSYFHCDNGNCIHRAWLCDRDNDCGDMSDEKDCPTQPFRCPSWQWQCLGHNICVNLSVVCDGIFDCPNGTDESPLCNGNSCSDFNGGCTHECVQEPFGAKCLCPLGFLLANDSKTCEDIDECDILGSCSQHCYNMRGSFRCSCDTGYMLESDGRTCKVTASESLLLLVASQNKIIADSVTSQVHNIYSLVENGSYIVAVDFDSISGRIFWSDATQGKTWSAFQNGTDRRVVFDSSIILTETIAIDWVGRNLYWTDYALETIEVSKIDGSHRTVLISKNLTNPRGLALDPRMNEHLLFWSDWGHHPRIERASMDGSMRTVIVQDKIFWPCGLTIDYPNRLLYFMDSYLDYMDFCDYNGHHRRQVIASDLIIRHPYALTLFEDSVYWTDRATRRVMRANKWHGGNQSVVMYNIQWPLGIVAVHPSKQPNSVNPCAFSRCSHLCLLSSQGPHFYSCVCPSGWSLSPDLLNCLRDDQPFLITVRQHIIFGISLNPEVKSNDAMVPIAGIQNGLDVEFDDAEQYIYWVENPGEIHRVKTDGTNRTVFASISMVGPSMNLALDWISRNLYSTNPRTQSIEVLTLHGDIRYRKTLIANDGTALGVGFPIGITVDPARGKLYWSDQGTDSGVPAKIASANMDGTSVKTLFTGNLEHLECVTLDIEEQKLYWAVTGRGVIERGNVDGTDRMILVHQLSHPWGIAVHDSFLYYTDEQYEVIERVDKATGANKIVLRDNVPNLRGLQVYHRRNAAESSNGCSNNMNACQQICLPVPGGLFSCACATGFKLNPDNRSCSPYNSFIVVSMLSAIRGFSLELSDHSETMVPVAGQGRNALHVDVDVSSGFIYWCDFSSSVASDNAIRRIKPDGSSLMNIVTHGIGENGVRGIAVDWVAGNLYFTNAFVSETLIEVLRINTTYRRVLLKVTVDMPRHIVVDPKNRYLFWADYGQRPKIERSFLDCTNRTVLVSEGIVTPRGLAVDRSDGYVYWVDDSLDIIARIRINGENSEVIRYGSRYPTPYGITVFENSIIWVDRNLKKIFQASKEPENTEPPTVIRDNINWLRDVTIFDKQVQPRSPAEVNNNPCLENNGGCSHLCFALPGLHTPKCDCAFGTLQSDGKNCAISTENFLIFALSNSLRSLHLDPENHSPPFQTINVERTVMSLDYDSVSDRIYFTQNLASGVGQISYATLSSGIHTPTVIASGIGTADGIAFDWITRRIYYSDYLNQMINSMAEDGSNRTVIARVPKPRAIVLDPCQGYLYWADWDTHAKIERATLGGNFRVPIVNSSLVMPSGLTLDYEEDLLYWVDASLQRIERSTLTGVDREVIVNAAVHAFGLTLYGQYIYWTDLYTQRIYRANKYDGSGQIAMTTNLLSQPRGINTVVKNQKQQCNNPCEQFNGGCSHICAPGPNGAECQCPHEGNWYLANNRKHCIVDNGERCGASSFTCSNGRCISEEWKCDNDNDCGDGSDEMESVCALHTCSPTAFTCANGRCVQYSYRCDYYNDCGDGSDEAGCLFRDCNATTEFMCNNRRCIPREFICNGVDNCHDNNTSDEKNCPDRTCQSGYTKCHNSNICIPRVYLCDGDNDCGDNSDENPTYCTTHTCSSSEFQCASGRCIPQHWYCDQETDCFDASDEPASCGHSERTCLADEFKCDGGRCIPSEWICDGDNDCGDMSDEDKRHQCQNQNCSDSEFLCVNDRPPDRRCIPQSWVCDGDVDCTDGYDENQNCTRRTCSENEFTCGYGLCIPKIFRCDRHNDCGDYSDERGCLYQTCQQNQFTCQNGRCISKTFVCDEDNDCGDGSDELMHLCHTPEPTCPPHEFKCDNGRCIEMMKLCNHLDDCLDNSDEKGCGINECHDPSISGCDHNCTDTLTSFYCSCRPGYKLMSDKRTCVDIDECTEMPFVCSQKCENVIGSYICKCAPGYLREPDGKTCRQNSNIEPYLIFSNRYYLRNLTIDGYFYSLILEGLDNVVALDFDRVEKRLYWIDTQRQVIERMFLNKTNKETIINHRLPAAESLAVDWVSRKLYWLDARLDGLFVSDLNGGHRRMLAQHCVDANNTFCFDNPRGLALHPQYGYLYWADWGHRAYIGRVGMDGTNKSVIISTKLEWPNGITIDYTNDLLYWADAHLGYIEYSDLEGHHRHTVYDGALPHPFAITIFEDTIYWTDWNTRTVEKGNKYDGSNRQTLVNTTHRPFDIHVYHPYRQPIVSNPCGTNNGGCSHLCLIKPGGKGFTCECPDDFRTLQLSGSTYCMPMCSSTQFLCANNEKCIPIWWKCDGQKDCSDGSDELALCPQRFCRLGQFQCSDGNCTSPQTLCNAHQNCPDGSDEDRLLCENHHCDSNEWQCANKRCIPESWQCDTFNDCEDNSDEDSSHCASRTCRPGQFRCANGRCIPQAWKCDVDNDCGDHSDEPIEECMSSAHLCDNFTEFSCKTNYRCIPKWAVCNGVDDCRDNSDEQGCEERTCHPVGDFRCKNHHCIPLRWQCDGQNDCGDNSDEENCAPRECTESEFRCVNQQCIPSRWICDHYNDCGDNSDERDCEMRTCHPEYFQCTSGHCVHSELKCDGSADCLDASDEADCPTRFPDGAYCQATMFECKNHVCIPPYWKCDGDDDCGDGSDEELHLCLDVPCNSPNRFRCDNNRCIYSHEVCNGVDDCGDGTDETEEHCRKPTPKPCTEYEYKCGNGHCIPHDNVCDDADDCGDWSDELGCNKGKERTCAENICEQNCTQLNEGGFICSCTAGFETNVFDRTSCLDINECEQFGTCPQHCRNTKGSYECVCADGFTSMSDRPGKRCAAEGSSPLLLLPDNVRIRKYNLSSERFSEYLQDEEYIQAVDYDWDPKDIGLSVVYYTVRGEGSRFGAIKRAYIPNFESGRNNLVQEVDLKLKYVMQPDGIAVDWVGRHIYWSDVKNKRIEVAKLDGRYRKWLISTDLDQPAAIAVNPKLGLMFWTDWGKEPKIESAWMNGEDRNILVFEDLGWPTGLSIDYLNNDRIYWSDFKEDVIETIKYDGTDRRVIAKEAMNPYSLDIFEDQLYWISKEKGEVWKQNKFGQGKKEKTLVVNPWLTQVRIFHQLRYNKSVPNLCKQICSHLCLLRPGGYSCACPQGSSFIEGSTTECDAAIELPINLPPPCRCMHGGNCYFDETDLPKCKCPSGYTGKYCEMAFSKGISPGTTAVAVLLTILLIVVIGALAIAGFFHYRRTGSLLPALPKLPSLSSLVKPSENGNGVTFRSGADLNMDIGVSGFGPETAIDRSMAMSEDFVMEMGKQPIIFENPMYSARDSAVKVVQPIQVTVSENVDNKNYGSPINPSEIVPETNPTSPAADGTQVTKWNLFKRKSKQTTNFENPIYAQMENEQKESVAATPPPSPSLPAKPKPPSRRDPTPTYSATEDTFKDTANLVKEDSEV

Substance | Binding to Megalin (Megalin) | Binding to LRP (LRP) | also measured
ApoB100: apolipoprotein B 100 | Yes | – | Binding to LDL-R (LDL-R): Yes
Albumin | Yes | – | –
β-amyloid peptide 1-40: β-amyloid peptide 1-40 [reference compound] | – | – | Effect on transcytosis of 125I-p97 (BBCEC monolayers; competitor 5 micromolar (FIG. 10a, 10b)): failed to slow or reduce; Competition with p97 for receptor binding in human brain capillaries, repeat experiment (human brain capillaries; performed identically to FIG. 5 (FIG. 6)): competes with p97 for receptor binding
ApoJ/clusterin: ApoJ/clusterin | Yes | – | –
βAPP: β-amyloid precursor protein | – | Yes | Binding to VLDL-R (VLDL-R): Yes
tPA: tissue type plasminogen activator | Yes | Yes | –
human holo-transferrin: human holo-transferrin | – | – | Reduction of apical-to-basal transport of [125I]-p97 (BBCEC monolayers; 200-fold molar excess of competitor, [125I]-p97 25 nM (FIG. 15a, 15b)): had no impact; Inhibition of the uptake of [125I]-p97 into isolated human brain capillaries (human brain capillaries; 50-fold molar excess, [125I]-p97 100 nM, 1 h at 37° C. (FIG. 16a)): had no effect
α1-chymotrypsin/cathepsin G: protease/inhibitor complex | Yes | No | –
Pseudomonas Exotoxin A | No | Yes | –
ApoE: Apolipoprotein E | Yes | Yes | Binding to VLDL-R (VLDL-R): Yes; Binding to LR11 (LR11): Yes; Binding to ER-2 (ER-2): Yes
Gentamycin [reference compound] | Yes | Yes | –
Tissue factor inhibitor: tissue factor inhibitor | – | Yes | –
Activated α2-macroglobulin: activated α2-macroglobulin | No | Yes | –
Thyroglobulin: thyroglobulin | Yes | – | Binding to LR11 (LR11): Yes; Binding to ER-2 (ER-2): Yes
Plasminogen: plasminogen | Yes | – | –
Polymixin B [reference compound] | Yes | Yes | –
Thrombospondin-1: thrombospondin-1 | – | Yes | Binding to VLDL-R (VLDL-R): Yes
